Reference: article PMC10415144, “Structural insights into CodY activation and DNA recognition” (Nucleic Acids Research, 2023)
Values belong to the substance of their own block, whether it stands above or below them.

Experiments:
[1] = molecular target: T1, EfCodY (Enterococcus faecalis) (UniProt Q834K5); experiment: BLI; details: BLI: 20 mM Tris-HCl pH 8, 150 mM NaCl, 2 mM MgCl2, 0.1% NP-40, 25 C, 2 mM GTP and/or 10 mM Ile/Leu/Val as stated
T1 sequence: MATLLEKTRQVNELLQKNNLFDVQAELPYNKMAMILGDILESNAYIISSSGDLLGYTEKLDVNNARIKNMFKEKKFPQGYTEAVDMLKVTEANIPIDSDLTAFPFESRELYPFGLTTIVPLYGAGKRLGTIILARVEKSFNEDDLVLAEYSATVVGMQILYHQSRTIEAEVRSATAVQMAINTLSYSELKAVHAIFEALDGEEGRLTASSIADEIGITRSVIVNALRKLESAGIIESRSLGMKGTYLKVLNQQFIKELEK

[2] = molecular target: Staphylococcus aureus CodY (SaCodY), full length (Staphylococcus aureus) (UniProt Q2FHI3); experiment: SEC-MALS; Superdex 75 10/300, 0.4 ml/min; 200 ul of 35 uM CodY, ligand-free, 20 mM Tris-HCl pH 8, 200 mM NaCl

Substance: 26-nt overlapping sites
- Kd [1]: 710 nM

- stoichiometry N [2]: 2
Substance: Staphylococcus aureus CodY (SaCodY), full length (from UniProt Q2FHI3 1-257) (natural protein)

Substance: single 15-nt consensus site
- Kd ([1]; 10 mM Leu (implied), values printed as pair, assigned by order): 706 nM
